Entries after “also recorded” stand apart in the source; their conditions may differ.
B1: cone Tα: cone transducin α-subunit (protein)
chain: MGSGASAEDKELAKRSKELEKKLQEDADKEAKTVKLLLLGAGESGKSTIVKQMKIIHQDGYSPEECLEYKAIIYGNVLQSILAIIRAMPTLGIDYAEVSCVDNGRQLNNLADSIEEGTMPPELVEVIRKLWKDGGVQACFDRAAEYQLNDSASYYLNQLDRITAPDYLPNEQDVLRSRVKTTGIIETKFSVKDLNFRMFDVGGQRSERKKWIHCFEGVTCIIFCAALSAYDMVLVEDDEVNRMHESLHLFNSICNHKFFAATSIVLFLNKKDLFEEKIKKVHLSICFPEYDGNNSYEDAGNYIKSQFLDLNMRKDVKEIYSHMTCATDTQNVKFVFDAVTDIIIKENLKDCGLF
B2: GCAP1: N-myristoylated GCAP1, Ca^2+-binding protein (protein)
chain: MGNIMEGKSVEELSSTECHQWYKKFMTECPSGQLTLYEFRQFFGLKNLSPSASQYVEQMFETFDFNKDGYIDFMEYVAALSLVLKGKVEQKLRWYFKLYDVDGNGCIDRDELLTIIRAIRTINPWSDSSMSAEEFTDTVFAKIDINGDGELSLEEFMEGVQKDQMLLDTLTRSLDLTGIVRRLQNGEHEEAGTGDLAAEAAG
modifications: N-myristoylated
B3: recoverin: Ca^2+-binding protein recoverin (protein)
chain: MGNSKSGALSKEILEELQLNTKFTEEELSAWYQSFLKECPSGRITRQEFESIYSKFFPDSDPKAYAQHVFRSFDANSDGTLDFKEYVIALHMTTAGKPTQKLEWAFSLYDVDGNGTISKNEVLEIVMAIFKMIKPEDVKLLPDDENTPEKRAEKIWAFFGKKEDDKLTEEEFIEGTLANKEILRLIQFEPQKVKERIKEKKQ
B4: farnesylated Tγ: farnesylated transducin γ-subunit (protein)
chain: MPVINIEDLTEKDKLKMEVDQLKKEVTLERMMVSKCCEEVRDYIEERSGEDPLVKGIPEDKNPFKELKGGCVIS
modifications: farnesylated

Tested on: GST-UNC119
Assay: GST-UNC119 pulldown of proteins from retina lysates or HEK cells
Format: binding, bovine
Details: bovine or mouse retina lysate; Coomassie/LC-MS/MS or immunoblot

Molecule | interaction with GST-UNC119 in pulldown from retina lysate
B1 | Pulldown of rod and cone Tα
B2 | does not interact with GST-UNC119; also recorded: failed to interact
B3 | failed to interact
B4 | not with farnesylated Tγ
